Assay results published in patent publication US9096871B2, “Variant CBH I polypeptides with reduced product inhibition” (BP Corporation North America Inc., priority 2010, dated 2015).
Residue numbers refer to the chain shown, from its start. Numbers in names are those of the source.

B1: R268A/R411A: T. reesei CBH I (SEQ ID NO:2) with R268A and R411A substitutions (protein, listed as Trichoderma reesei)
chain: MYRKLAVISAFLATARAQSACTLQSETHPPLTWQKCSSGGTCTQQTGSVVIDANWRWTHATNSSTNCYDGNTWSSTLCPDNETCAKNCCLDGAAYASTYGVTTSGNSLSIGFVTQSAQKNVGARLYLMASDTTYQEFTLLGNEFSFDVDVSQLPCGLNGALYFVSMDADGGVSKYPTNTAGAKYGTGYCDSQCPRDLKFINGQANVEGWEPSSNNANTGIGGHGSCCSEMDIWEANSISEALTPHPCTTVGQEICEGDGCGGTYSDNAYGGTCDPDGCDWNPYRLGNTSFYGPGSSFTLDTTKKLTVVTQFETSGAINRYYVQNGVTFQQPNAELGSYSGNELNDDYCTAEEAEFGGSSFSDKGGLTQFKKATSGGMVLVMSLWDDYYANMLWLDSTYPTNETSSTPGAVAGSCSTSSGVPAQVESQSPNAKVTFSNIKFGPIGSTGNPSGGNPPGGNPPGTTTTRRPATTTGSSPGPTQSHYGQCGGIGYSGPTVCASGTTCQVLNPYYSQCL
B2: R268K/R411K: T. reesei CBH I (SEQ ID NO:2) with R268K and R411K substitutions (protein, listed as Trichoderma reesei)
chain: B1 chain with A268K, A411K
B3: R268A/R411K: T. reesei CBH I (SEQ ID NO:2) with R268A and R411K substitutions (protein, listed as Trichoderma reesei)
chain: B1 chain with A411K
B4: R411K: T. reesei CBH I (SEQ ID NO:2) with R411K substitution (protein, listed as Trichoderma reesei)
chain: B1 chain with A268R, A411K
B5: R268A: T. reesei CBH I (SEQ ID NO:2) with R268A substitution (protein, listed as Trichoderma reesei)
chain: B1 chain with A411R
B6: R268K/R411A: T. reesei CBH I (SEQ ID NO:2) with R268K and R411A substitutions (protein, listed as Trichoderma reesei)
chain: B1 chain with A268K
B7: R411A: T. reesei CBH I (SEQ ID NO:2) with R411A substitution (protein, listed as Trichoderma reesei)
chain: B1 chain with A268R
B8: R268K: T. reesei CBH I (SEQ ID NO:2) with R268K substitution (protein, listed as Trichoderma reesei)
chain: B1 chain with A268K, A411R

Test: Bagasse assay in the absence and presence of β-glucosidase (BG)
Type: biochemical
Settings: variants of T. reesei CBH I; [(Activity without BG)/(Activity with BG)]*100; conversion of glucan after 72 hours
Procedure: Bagasse Assay: This assay measures the activity of CBH I on bagasse, a lignocellulosic substrate. Reactions were run in 10 ml vials with 5% dilute acid pretreated bagasse (250 mg solids per 5 ml reaction). Each reaction contained 4 mg CBH I enzyme/g solids, 200 mM MES pH 6, kanamycin, and chloramphenicol. Reactions were incubated at 35° C. in hybridization incubators (Robbins Scientific), rotating at 20 RPM. Time points were taken by transferring a sample of homogenous slurry (150 μl) into a 96-well deep well plate and quenching the reaction with stop buffer (450 μl of 500 mM sodium carbonate, pH 10). Time point measurements were taken every 24 hours for 72 hours.
Cellobiose Tolerance Assays (or Cellobiose Inhibition Assays): Tolerance to cellobiose (or inhibition caused by cellobiose) was tested in two ways in the CBH I assays. A direct-dose tolerance method can be applied to all of the CBH I assays (i.e., 4-MUL, PASC, and/or bagasse assays), and entails the exogenous addition of a known amount of cellobiose into assay mixtures. A different indirect method entails the addition of an excess amount of β-glucosidase (BG) to PASC and bagasse assays (typically, 1 mg β-glucosidase/g solids loaded). BG will enzymatically hydrolyze the cellobiose generated during these assays; therefore, CBH I activity in the presence of BG can be taken as a measure of activity in the absence of cellobiose. Furthermore, when activity in the presence and absence of BG are similar, this indicates tolerance to cellobiose. […]
FIGS. 4 and 5 show bar graph data for the bagasse assay of wild type T. reesei CBH I vs. the variants. In FIG. 4, bars represent relative activity, normalized to wild type activity in the absence of cellobiose (WT+BG=1). In FIG. 5, bars represent tolerance to cellobiose, as represented by the ratio of activity in the presence of accumulating cellobiose (−BG) to that of activity in the absence of cellobiose (+BG); ratios close to 1 indicate greater tolerance to cellobiose.

| Molecule | Tolerance to cellobiose accumulation % Activity in Bagasse Assay (−/+BG) [%] |
| --- | --- |
| B1 | 95 |
| B2 | 94 |
| B3 | 94 |
| B4 | 89 |
| B5 | 86 |
| B6 | 102 |
| B7 | 94 |
| B8 | 92 |
